According to the nanobody polyreactivity screen of Harvey et al. (2022):

Assay: yeast display, Sf9 membrane polyspecificity reagent, FACS + sequencing; frameworks hold sequencing errors
How it was run: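 Sorting gates, low and high (top ~1%), were placed on anti-HA fluorescence to track expression and on streptavidin fluorescence to track reagent binding. A clone's polyreactivity label is taken from the gate it came out of. The reagent was 10% biotinylated, detergent-solubilized Sf9 membrane, applied for 1 hour at 4 °C to galactose-induced yeast display cells.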

| Sequence | polyreactivity (PSR sort gate) |
| --- | --- |
| QVQLVESGGGLVQAGGSLRLSCASSGRIFRWYAMGWYRQAPGKERELVAAISRSGTSTYYADSVKGRFTISRDNAKNTVFLQMNSLKPEDTAVYYCNTDVQVYSYNYWGQGTQVTVSS | low polyreactivity |
| QVQLVESGGGLVQAGGSLRLSCASSGRIFSGNAMAWYRQAPGKEMEFVASISRSGGRTRYADSVKGRFTISRDNAKNTVYLQMNSLKPEDTAVYYCAADRSRRGHLTHGYWGQGTQVTVSS | high polyreactivity |
| QVQLVESGGGLVQAGGSLRLSCASSGRIFSQNAMGWYRQAPGKERELVAAISGGSTNYADSVKGRFTISRDNAKNPVYLQMNSLKPEDTAVYYCAADAPFKMDYWGQGTQVTVSS | low polyreactivity |
| QVQLVESGGGLVQAGGSLRLSCASSGRISASYAMGWYRQAPGKERELVAAITGSGGSTYYADSVKGRFTISRDNAKNTVYLQMNSLKPEDTAVYYCAAEPGLSVFFEFDSWGQGTQVTVSS | low polyreactivity |
| QVQLVESGGGLVQAGGSLRLSCASSGRTFAYNALGWYREAPGKERELVAAISASGGSTYYADSVKGRFTISRDNAKNTVYLQMNSLKPEDTAVYYCAAYVRSAYYAIHVDYWGQGTQVTVSA | low polyreactivity |
| QVQLVESGGGLVQAGGSLRLSCASSGRTFNFYAMGWYRQAPGKERELVAAISHGDSTYYADSVKGRFTISRDNAKNTVYLQMNSLKPEDTAVYYCAASQKYYLLKYEYWGQGTQVTVSS | low polyreactivity |
| QVQLVESGGGLVQAGGSLRLSCASSGRTFPGNAMGWYRQAPGKERELVAAISWSGTRTYYADSVKGRFTISRDNAKNTVYLQMNSLKPEDTAVYYCNVVVKGAWDYYPYAYWGQGTQVTVSA | high polyreactivity |
| QVQLVESGGGLVQAGGSLRLSCASSGRTFQVNAMGWYRQAPGKERELVAAISASDGSTYADSVKGRFTISRDNAKNTVYLQMNSLKPEDTAVYYCNKAAYGGHRTSEQVGWVYLYDYWGQGTQVTVSS | low polyreactivity |
| QVQLVESGGGLVQAGGSLRLSCASSGRTFRSYAMGWYRQAPGKERELVAAITYSGGNTYYADSVKGRFTISRDNAKNTVYLQMNSLKPEDTAVYYCAYLKTPRGYDYWGQGTQVTVSS | high polyreactivity |
| QVQLVESGGGLVQAGGSLRLSCASSGRTFYINAMVWYRQAPGKERELVAAISIRGGRTYYADSVKGRFTISRDNAKNTVYLQMISLKPEDTAVYYCAADYGSLRQRTLYEYWGQGTQVTVSS | low polyreactivity |
| QVQLVESGGGLVQAGGSLRLSCASSGRTISHNAMGWYRQAPGKERELVAAISRSGGRTYYADSVKGRFTISRYNAKNTVYLQMNSLKPEDTAVYYCAAEYFDGSTYSYYYWGQGTQVTVSS | high polyreactivity |
| QVQLVESGGGLVQAGGSLRLSCASSGSIFGSNAMGWYRQAPVKERELVAAITWSDGSTYYADSVKGRFTISRDNAKNTVYLQMNSLKPEDTAVYYCAVVWRGGYRWPYEYWGQGTQVTVSS | low polyreactivity |
| QVQLVESGGGLVQAGGSLRLSCASSGSIFKAYAMGLSRQAPGKERELVAAIRGSGGRTYYADSVKGRFTISRDYAKNTVYLQMNSLKPEDTAVYYCNTVRSTPNGLDYDYWGQGTQVTVSS | low polyreactivity |
| QVQLVESGGGLVQAGGSLRLSCASSGSIFNYNSMGGYRQAPGKERELVAGITTSGGSTYYADSVKGRFTISRDNAKNTVYLQMNSLKPEDTAVYYCAGYDYISSTYFLDDFWGQGSQVTVSS | low polyreactivity |
| QVQLVESGGGLVQAGGSLRLSCASSGSIFPEYDMVWYRQAPGKERELVASISSGGSSTYYADSVKGRFTISRDNAMNTVYLQMNSLKPEATAVYYCARRRSYKRGFDYWGQGTQVTVSS | low polyreactivity |
| QVQLVESGGGLVQAGGSLRLSCASSGSIFQYYVMGWYRPAPGKERELVAAMRRSGTTYYADSVKGRFTISRDNAKHTLDLQMNSLKPEDTAVYYCNKVRGQEPSNYDYWGQGTQVTVSS | low polyreactivity |
| QVQLVESGGGLVQAGGSLRLSCASSGSIFRYNAMGWYRQAPGKEREFVAAISYSGGRTYYADSLKGRFTISRDNAKNNVYLQMNIQKPEDTAVYYCAARLKRPFSGYDNWGQGTQVSVSS | high polyreactivity |
